Experimental data from patent US12404345B2, “Humanized antibodies against iRHOM2” (SCIRHOM GMBH, priority 2021, dated 2025).

Target: T1, human iRhom2 (Homo sapiens, UniProt Q6PJF5)
T1 construct: MEF-DKO-hiR2-FL-WT-T7 cells stably expressing human iRhom2 full length wild type; expressed in transfected cells; host or cells: immortalized iRhom1/2-/- double knockout mouse embryonic fibroblasts, pMSCV retroviral infection
T1 sequence (Q6PJF5 1-856): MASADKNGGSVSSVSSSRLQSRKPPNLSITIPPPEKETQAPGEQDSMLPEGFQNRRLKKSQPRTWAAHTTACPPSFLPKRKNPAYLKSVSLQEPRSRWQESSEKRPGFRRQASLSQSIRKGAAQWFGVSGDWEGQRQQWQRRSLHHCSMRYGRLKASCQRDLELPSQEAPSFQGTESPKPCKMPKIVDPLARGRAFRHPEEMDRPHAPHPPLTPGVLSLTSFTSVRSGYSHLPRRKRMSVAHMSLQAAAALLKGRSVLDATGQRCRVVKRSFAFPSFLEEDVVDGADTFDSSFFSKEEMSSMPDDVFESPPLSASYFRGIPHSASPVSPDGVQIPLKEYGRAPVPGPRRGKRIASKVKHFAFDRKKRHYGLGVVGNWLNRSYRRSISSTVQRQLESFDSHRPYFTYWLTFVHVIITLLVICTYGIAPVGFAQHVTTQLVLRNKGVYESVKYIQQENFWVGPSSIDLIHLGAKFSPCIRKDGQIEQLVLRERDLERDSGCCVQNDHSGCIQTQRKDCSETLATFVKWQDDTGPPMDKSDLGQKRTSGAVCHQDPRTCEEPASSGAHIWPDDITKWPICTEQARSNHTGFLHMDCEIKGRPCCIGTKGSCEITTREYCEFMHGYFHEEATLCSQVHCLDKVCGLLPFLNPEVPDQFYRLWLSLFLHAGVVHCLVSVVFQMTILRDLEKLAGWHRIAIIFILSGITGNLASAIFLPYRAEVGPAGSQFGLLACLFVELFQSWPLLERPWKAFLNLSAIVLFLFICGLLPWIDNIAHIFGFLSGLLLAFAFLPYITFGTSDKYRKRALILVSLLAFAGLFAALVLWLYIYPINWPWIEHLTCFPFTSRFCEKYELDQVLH
Experiment: FACS binding to MEF-DKO-hiR2-FL-WT-T7 cells
Details: antibody at 3 μg/ml
Excerpt: Next, immortalized iRhom1/2−/− DKO MEFs were reconstituted with a tagged form of human iRhom2 to test target recognition of humanized antibodies of the invention. Additionally, iRhom1/2−/− DKO MEFs stably expressing a tagged form of mouse iRhom2 were generated in order to determine cross-reactivity of the humanized antibodies 16-B-03, 16-B-05, 16-B-07, 23-B-04, 42-B-02 and 42-B-04 of the invention with the mouse orthologue of iRhom2.
In brief, on day 1, Phoenix-ECO cells (American Type Culture Collection, USA) were seeded on 6-well tissue culture plates (Greiner, Germany) in standard growth medium at 8×10^5 cells per well and kept overnight at 37° C., 5% CO2. On day 2, the medium was replaced by fresh medium supplemented with chloroquine (Sigma-Aldrich, USA) at a final concentration of 25 μM. Applying the calcium phosphate method, cells were transfected with 2 μg/ml of pMSCV (Clontech, USA) empty vector, pMSCV-hiR2-FL-WT-T7 encoding human iRhom2 full length wild type C-terminally tagged with 3 consecutive copies of the T7 epitope (MASMTGGQQMG) or pMSCV-miR2-FL-WT-T7 encoding mouse iRhom2 full length wild type C-terminally tagged with 3 consecutive copies of the T7 epitope, and were kept at 37° C., 5% CO2. […]

binding to the human iRhom2 variant on MEF-DKO-hiR2-FL-WT-T7 cells: strong binding
B1: 16-B-03: humanized antibody binding human iRhom2; HCVD SEQ ID NO 1, LCVD SEQ ID NO 5 (antibody, V domains shown)
VH: QVTLRESGPALVKPTQTLTLTCTFSGFSLSTFALGVGWIRQPPGKALEWLAHIWWDDDKYYNPALKSRLTISKDTSKNQVVLTITNMDPVDTATYYCARITTYYYGMDYWGQGTLVTVSS
VL: EIVMTQSPDFQSVTPKEKVTITCRASQSIGNHLHWYQQKPDASPKLLIKYASQSISGVPSRFSGSGSGTDFTLTINSLEAEDAATYFCQQSYQWPLTFGQGTKLEIK
modifications: antibody sequences
